From patent US11155602B2, “Polypeptides targeting HIV fusion” (priority 2015, dated 2021)
Residue numbers refer to the chain shown, from its start.

B1: 109 (protein)
chain: MGVSDVPRDLEVVAATPTSLLISWDYPTVTPRYYRITYGETGGNSPVQEFTVPEYIGTATISGLKPGVDYTITVYAVTNDTTIYSISRPISINYRTEIDKPSQHHHHHH
modifications: Adnectin
B2: 95 (protein)
chain: MASTSGVSDVPRDLEVVAATPTSLLISWDAPAVTVHSYHIQYWPLGWYQRYQVFSVPGSKSTATISGLKPEVEYQIRVYAETGGGGSQQSFGWIQIGYRTEGSGSHHHHHH
modifications: Adnectin
B3: 110 (protein)
chain: MGHHHHHHGGVSDVPRDLEVVAATPTSLLISWDAPAVTVHSYHIQYWPLGSYQRYQVFSVPGSKSTATISGLKPGVEYQIRVYAETGRGESDQSLGWIQIGYRTEES
modifications: Adnectin
B4: 111 (protein)
chain: B3 chain with L95F
modifications: Adnectin
B5: 112 (protein)
chain: B3 chain with E105P
modifications: Adnectin
B6: 113 (protein)
chain: B3 chain with L95F, E105P
modifications: Adnectin
B7: 114 (protein)
chain: B3 chain with S41A, S51F, R54G, R88L, E90D, S91A, D92H, E105P
modifications: Adnectin
B8: 364 (protein)
chain: MGHHHHHHGGSVSDVPRDLEVVAATPTSLLISWEYKVHPYRYYRITYGETGGNSPVQEFTVPSVLSTATISGLKPGVDYTITVYAVTYGDPSAPISINYRTEID
modifications: Adnectin
B9: 365 (protein)
chain: B8 chain with H38S, P39G, P91D
modifications: Adnectin
B10: 366 (protein)
chain: B8 chain with H38Y, P39H, Y40N, P91D
modifications: Adnectin
B11: 367 (protein)
chain: B8 chain with T67S, T69Q, I70L, P91D
modifications: Adnectin
B12: 368 (protein)
chain: B8 chain with D90T, P91D
modifications: Adnectin
B13: 369 (protein)
chain: B8 chain
modifications: Adnectin
B14: 370 (protein)
chain: B8 chain with P91D, A93K
modifications: Adnectin
B15: 139 (protein)
chain: MGVSDVPRDLEVVAATPTSLLISWEDPEAAVRYYRITYGETGGNSPVQEFTVPINDLHSYLSGLKPGVDYTITVYAVTEATVMYVLDEPISINYRTEIDKPSQHHHHHH
modifications: Adnectin
B16: 371 (protein)
chain: B8 chain with D90I, P91D, A93T
modifications: Adnectin
B17: 140 (protein)
chain: MGVSDVPRDLEVVAATPTSLLISWDLLEDMSRYYRITYGETGGNSPVQEFTVPTDAYTATISGLKPGVDYTITVYAVTQDSHVIELSYPISINYRTEIDKPSQHHHHHH
modifications: Adnectin
B18: 116 (protein)
chain: MASTSGVSDVPRDLEVVAATPTSLLISWDAPAVTVEQYYIAYYVEGEPSSYQYFRVPGSKSTATISGLKPGVLYHIYVNAVTGSGLRPEFSLPIRIKYRTEGSGSHHHHHH
modifications: Adnectin
B19: 141 (protein)
chain: MGVSDVPRDLEVVAATPTSLLISWQYKVHPYRYYRITYGETGGNSPVQEFTVPSVLSTATISGLKPGVDYTITVYAVTYGIQSPPISINYRTEIDKPSQHHHHHH
modifications: Adnectin
B20: 142 (protein)
chain: B19 chain with Q25R, K27R, Y79D, I81V, P84S
modifications: Adnectin
B21: 143 (protein)
chain: B19 chain with Q25E, K27N, H29N, Q82E, P84S
modifications: Adnectin
B22: 144 (protein)
chain: B19 chain with I81V, Q82E, P84S
modifications: Adnectin
B23: 145 (protein)
chain: B19 chain with Q25E, I81V, Q82N, P84L
modifications: Adnectin
B24: 146 (protein)
chain: B19 chain with Q25E, Q82D
modifications: Adnectin
B25: 147 (protein)
chain: B19 chain with Q25E, I81V, Q82D, P84D
modifications: Adnectin
B26: 148 (protein)
chain: B19 chain with Q25E, K27N, H29N, Q82D
modifications: Adnectin
B27: 149 (protein)
chain: B8 chain with D90K, P91D
modifications: Adnectin
B28: 150 (protein)
chain: B19 chain with Q25E, K27N, H29N, I81V, Q82E, P84S
modifications: Adnectin
B29: 117 (protein)
chain: B8 chain with P91D
modifications: Adnectin
B30: 151 (protein)
chain: B19 chain with Q25E, Q82D, P84S
modifications: Adnectin
B31: 152 (protein)
chain: B19 chain with Q25E, K27N, H29N, I81V, P84D
modifications: Adnectin
B32: 153 (protein)
chain: B8 chain with T69Q, P91D
modifications: Adnectin
B33: 154 (protein)
chain: B19 chain with Q25E, K27N, H29N, I81V, Q82N, P84L
modifications: Adnectin
B34: 155 (protein)
chain: B19 chain with Y79H, I81V, Q82H, P84A
modifications: Adnectin
B35: 156 (protein)
chain: B19 chain with Q25E, H29N, Y31W, Q82E, P84S
modifications: Adnectin
B36: 157 (protein)
chain: B19 chain with I81V, Q82N, P84I
modifications: Adnectin
B37: 158 (protein)
chain: B19 chain with Q25E, P30Y, Y31D
modifications: Adnectin
B38: 159 (protein)
chain: B8 chain with P91D, N98P, E102P, I103G, D104G
modifications: Adnectin
B39: 160 (protein)
chain: B19 chain with Q25E, H29D, I81V, Q82E, P84S
modifications: Adnectin
B40: 118 (protein)
chain: B19 chain with Q25K, I81V, Q82N, P84L
modifications: Adnectin

System: NL-Rluc virus
Assay: Combinectin potency assay: antiviral EC50, NL-Rluc virus in MT-2 cells, luciferase readout
Type: cell-based, HIV-1
Experimental: MT-2 cells, HEK 293T cells and the proviral DNA clone of […] were obtained from the NIH AIDS Research and Reference Reagent Program. MT-2 cells were propagated in RPMI 1640 medium supplemented with 10% heat-inactivated fetal bovine serum (FBS), 10 mM HEPES buffer pH 7.55, and 2 mM L-glutamine. HEK 293T cells were propagated in DMEM media supplemented with 10% heat-inactivated FBS, 10 mM HEPES buffer pH 7.55 and 2 mM L-glutamine. Recombinant NL-Rluc virus, in which a section of the nef gene from the proviral clone of NL4-3 was replaced with the Renilla luciferase gene, was constructed at Bristol-Myers Squibb. The replication-competent virus was harvested 3 days after transfection of HEK 293T cells with the modified pNL-Rluc proviral clone. Transfections were performed using Lipofectamine Plus (Invitrogen, Carlsbad, Calif.), according to manufacturer's instruction. Virus was titered in MT-2 cells using luciferase enzyme activity as a biomarker. The NL-Rluc virus used to infect MT-2 cells a multiplicity of 0.01 for 1 hour before adding to the peptides in 96-well plates. Peptides were serially diluted three-fold and 11 concentrations were plated in triplicate. After 4-5 days of incubation, cells were processed and quantitated for virus growth by the amount of expressed luciferase. Luciferase was quantitated using the Dual Luciferase kit from Promega (Madison, Wis.), with modifications to the manufacturer's protocol. The diluted Passive Lysis solution was pre-mixed with the re-suspended Luciferase Assay Reagent and then re-suspended in STOP & GLO® Substrate (2:1:1 ratio). A total of […] of the mixture was added to each aspirated well on assay plates and luciferase activity was measured immediately on a Wallac TriLux (Perkin-Elmer, Waltham, Mass.). The 50% effective concentration (EC50) was calculated by comparing the amount of luciferase produced in the presence of inhibitory peptide compared to wells where no peptide was added.

| Molecule | EC50 (Anti-CD4 Adnectin, Table 2) [nM] | EC50 (Anti-N17 Adnectin, Table 3) [nM] |
| --- | --- | --- |
| B1 | 320 | – |
| B2 | 48 | – |
| B3 | 28.6 | – |
| B4 | 20 | – |
| B5 | 18.4 | – |
| B6 | 15.4 | – |
| B7 | 12.6 | – |
| B8 | – | 89 |
| B9 | – | > 1000 |
| B10 | – | > 1000 |
| B11 | – | 300 |
| B12 | – | 62 |
| B13 | – | 155 |
| B14 | – | 335 |
| B15 | – | 130 |
| B16 | – | 114 |
| B17 | – | 950 |
| B18 | – | 50 |
| B19 | – | 3 |
| B20 | – | 55 |

| Molecule | EC50 (Anti-CD4 Adnectin, Table 2) [nM] | EC50 (Anti-N17 Adnectin, Table 3) [nM] |
| --- | --- | --- |
| B21 | – | 20 |
| B22 | – | 20 |
| B23 | – | 11 |
| B24 | – | 11 |
| B25 | – | 28 |
| B26 | – | 14 |
| B27 | – | 3 |
| B28 | – | 18 |
| B29 | – | 42 |
| B30 | – | 11 |
| B31 | – | 20 |
| B32 | – | 8 |
| B33 | – | 8 |
| B34 | – | 9 |
| B35 | – | 43 |
| B36 | – | 43 |
| B37 | – | 85 |
| B38 | – | 23 |
| B39 | – | 58 |
| B40 | – | 28 |
